According to patent US5885833:

Molecular target: E2F1-DP1 heterodimer (E2F1 aa 87-1398 as printed) (Homo sapiens?) (UniProt Q01094+Q14186)
Assay: EMSA
[1] = complex not specified individually

E2F1-DP1 heterodimer (E2F1 aa 87-1398 as printed) (Homo sapiens?), sequence (Q01094 whole entry, chain 1 of 2, the tested form may be a part): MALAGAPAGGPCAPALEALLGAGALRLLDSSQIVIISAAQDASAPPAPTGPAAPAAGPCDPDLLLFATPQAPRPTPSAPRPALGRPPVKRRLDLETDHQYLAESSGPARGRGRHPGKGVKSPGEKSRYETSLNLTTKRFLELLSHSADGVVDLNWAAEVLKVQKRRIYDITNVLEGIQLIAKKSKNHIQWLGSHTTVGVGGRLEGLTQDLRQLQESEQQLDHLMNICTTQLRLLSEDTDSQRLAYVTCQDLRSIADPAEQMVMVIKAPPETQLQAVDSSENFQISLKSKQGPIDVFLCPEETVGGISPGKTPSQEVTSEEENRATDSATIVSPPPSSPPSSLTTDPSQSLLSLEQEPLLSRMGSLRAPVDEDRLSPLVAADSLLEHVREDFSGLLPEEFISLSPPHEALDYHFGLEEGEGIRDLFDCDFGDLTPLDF
E2F1-DP1 heterodimer (E2F1 aa 87-1398 as printed) (Homo sapiens?), sequence (Q14186 whole entry, chain 2 of 2, the tested form may be a part): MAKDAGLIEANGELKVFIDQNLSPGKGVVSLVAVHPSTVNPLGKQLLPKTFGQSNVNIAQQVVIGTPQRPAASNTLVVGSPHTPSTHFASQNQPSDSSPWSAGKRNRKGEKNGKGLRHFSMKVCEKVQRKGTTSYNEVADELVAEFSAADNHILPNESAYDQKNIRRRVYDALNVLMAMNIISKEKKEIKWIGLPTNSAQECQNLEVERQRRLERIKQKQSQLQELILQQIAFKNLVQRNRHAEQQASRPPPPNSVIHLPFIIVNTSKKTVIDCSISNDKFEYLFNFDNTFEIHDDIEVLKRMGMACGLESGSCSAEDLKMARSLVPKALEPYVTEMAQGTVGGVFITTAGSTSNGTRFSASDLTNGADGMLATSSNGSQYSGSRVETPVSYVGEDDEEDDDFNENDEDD

Sequence: GGCGCCGACGCACTTGGCTGGAGATAGGAAAGTGGTTCTGTG (double strand) [mutated B-myb probe]
- binding signal (% probe bound) [1]: < 0.01

Sequence: GATCGACTAGTTTCGCGCCCTTTCTACTAG (double strand) [E2a adenovirus promoter probe]
- binding signal (% probe bound) (22 C, 50 mM NaCl, pH 8.0): 1

Sequence: GATCCTCTCACCTGCTGCTAG (double strand) [control probe]
- binding signal (% probe bound) [1]: < 0.002
